This assay has as its target type B human PDGF receptor (B-hPDGF-R) on transfected CHO cells (CHO-HR5) (human) (UniProt P09619). Briefly: whole-cell 125I-PDGF binding, 37 C for 45 min, Ficoll gradient; non-specific binding taken from CHO cells.

Our source for the non-specific binding as percent of the bound radioactivity values is patent publication US7105305.

Sequence of type B human PDGF receptor (B-hPDGF-R) on transfected CHO cells (CHO-HR5) (human) (P09619 33-1106 E241D): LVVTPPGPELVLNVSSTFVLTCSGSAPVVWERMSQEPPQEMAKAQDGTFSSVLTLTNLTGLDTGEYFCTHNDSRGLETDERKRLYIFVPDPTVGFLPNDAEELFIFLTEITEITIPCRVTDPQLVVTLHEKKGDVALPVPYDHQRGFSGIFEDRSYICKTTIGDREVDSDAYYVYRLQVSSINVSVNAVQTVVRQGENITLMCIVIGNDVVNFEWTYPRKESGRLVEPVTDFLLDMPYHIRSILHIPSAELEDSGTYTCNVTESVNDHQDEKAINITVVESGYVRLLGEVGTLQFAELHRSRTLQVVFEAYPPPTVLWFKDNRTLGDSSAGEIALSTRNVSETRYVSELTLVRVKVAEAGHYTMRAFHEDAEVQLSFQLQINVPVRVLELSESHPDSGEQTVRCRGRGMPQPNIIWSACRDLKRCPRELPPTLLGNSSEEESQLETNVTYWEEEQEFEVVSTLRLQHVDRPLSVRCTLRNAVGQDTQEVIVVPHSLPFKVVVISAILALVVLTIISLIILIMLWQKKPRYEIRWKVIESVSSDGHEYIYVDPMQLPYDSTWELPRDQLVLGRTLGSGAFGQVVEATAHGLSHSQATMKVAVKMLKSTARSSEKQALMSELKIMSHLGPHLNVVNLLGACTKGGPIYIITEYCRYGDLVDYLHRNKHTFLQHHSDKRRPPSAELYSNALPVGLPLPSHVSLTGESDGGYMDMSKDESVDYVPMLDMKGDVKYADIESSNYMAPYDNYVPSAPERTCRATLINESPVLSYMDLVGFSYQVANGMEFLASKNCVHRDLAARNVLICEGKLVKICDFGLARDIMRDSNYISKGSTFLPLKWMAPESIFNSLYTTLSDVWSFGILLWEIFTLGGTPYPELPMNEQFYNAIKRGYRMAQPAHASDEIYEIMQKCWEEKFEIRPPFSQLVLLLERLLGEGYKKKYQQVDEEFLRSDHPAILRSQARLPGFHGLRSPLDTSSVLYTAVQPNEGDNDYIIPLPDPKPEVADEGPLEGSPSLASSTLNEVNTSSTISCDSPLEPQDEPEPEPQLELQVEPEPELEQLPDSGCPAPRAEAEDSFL

As to ^125I-labeled PDGF (ligand), the non-specific binding as percent of the bound radioactivity came to 25 percent.
